The test deals with Mycobacterium tuberculosis type-I fatty acid synthase (FAS-I) (Mycobacterium tuberculosis). Briefly: […] (100 mM potassium phosphate pH 7.2, 150 mM KCl, 1 mM TCEP, 1 mM EDTA) […].

“Mycobacterium tuberculosis type-I fatty acid synthase (FAS-I) (enzyme)” registered a stoichiometry N of 6.

What is called stoichiometry N is a count of units in the complex or per binding partner.

For the origin of these results see publication PMC6155276.
